Reference: patent publication US20180346555A1 (Regeneron, published 2018)

T1: natural Bet v 1 (Betula verrucosa (Betula pendula), UniProt P15494 2-160)
T1 chain: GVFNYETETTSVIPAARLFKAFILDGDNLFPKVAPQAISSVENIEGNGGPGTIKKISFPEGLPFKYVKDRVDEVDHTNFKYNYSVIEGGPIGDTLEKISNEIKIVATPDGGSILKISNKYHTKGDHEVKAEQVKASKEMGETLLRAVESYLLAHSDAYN

T2: natural Bet v 1 (Indoor Biotechnologies, # NA-BV1-1) (Betula verrucosa (Betula pendula), UniProt P15494 2-160, biotin labeled in the IgE blocking ELISA (Tables 12-14); unlabeled in the SPR of Table 18)
T2 construct: Bought natural allergen purified from birch pollen; also called nBet v 1; Biotinylated Bet v 1
T2 chain: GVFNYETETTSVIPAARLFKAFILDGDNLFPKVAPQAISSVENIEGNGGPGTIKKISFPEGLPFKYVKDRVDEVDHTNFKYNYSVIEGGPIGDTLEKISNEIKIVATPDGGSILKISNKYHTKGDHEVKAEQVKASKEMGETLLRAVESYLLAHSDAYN


Columns and labels:
natural Bet v 1 [1] = target: T1, natural Bet v 1; test: cell-based or functional assay
natural Bet v 1 [2] = target: T1, natural Bet v 1; test: SPR Biacore 4000, mAb captured on anti-human Fc, 25C;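 note: purified anti-Bet v 1 mAbs probed with natural Bet v 1 in HBS-ET buffer (HEPES, NaCl, EDTA, Tween-20) at pH 7.4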
Method: Equilibrium dissociation constants (KD) for natural Bet v 1 binding to purified anti-Bet v 1 monoclonal antibodies were determined using a real-time surface plasmon resonance biosensor (SPR-Biacore) on a Biacore 4000 instrument. All binding studies were performed in 10 mM HEPES, 150 mM NaCl, 3 mM EDTA, and 0.05% v/v surfactant Tween-20, pH 7.4 (HBS-ET) running buffer at 25° C. and 37° C. […] Association (kₐ) and dissociation (kd) rate constants were determined by fitting the real-time binding sensorgrams to a 1:1 binding model with mass transport limitation using Scrubber 2.0c curve-fitting software. Binding dissociation equilibrium constants (KD) and dissociative half-lives (t½) were calculated from the kinetic rate constants as:

natural Bet v 1 [3] = target: T1, natural Bet v 1; test: SPR Biacore 4000, mAb captured on anti-human Fc, 37C;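 note: kinetic rate constants from SPR sensorgrams fitted to a 1:1 model with mass transport limitation, HBS-ET buffer pH 7.4, KD and t½ derived from the rate constants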
[4] = target: T2, natural Bet v 1 (Indoor …); test: blocking ELISA, captured IgE of donor 25299-RJ, 1 ug/mL each antibody
[5] = target: T2, natural Bet v 1 (Indoor …); test: blocking ELISA, captured IgE of donor 23035-BL, 1 ug/mL each antibody
[6] = target: T2, natural Bet v 1 (Indoor …); test: blocking ELISA, captured IgE of donor 25340-RR, 1 ug/mL each antibody
[7] = target: T2, natural Bet v 1 (Indoor …); test: dose-response blocking ELISA, captured IgE of donor 25340-RR, at 1 ug/mL each antibody
[8] = target: T2, natural Bet v 1 (Indoor …); test: blocking ELISA, captured IgE of donor 26532-CC, 1 ug/mL each antibody
[9] = target: T2, natural Bet v 1 (Indoor …); test: blocking ELISA, captured IgE of donor 29718-MW, 1 ug/mL each antibody
[10] = target: T2, natural Bet v 1 (Indoor …); test: dose-response blocking ELISA, captured IgE of donor 23939-MH, at 1 ug/mL each antibody
[11] = target: T2, natural Bet v 1 (Indoor …); test: blocking ELISA, captured IgE of donor 25609-MS, 1 ug/mL each antibody
[12] = target: T2, natural Bet v 1 (Indoor …); test: blocking ELISA, captured IgE of donor 25414-CW, 1 ug/mL each antibody
[13] = target: T2, natural Bet v 1 (Indoor …); test: dose-response blocking ELISA, captured IgE of donor 25609-MS, at 1 ug/mL each antibody
[14] = target: T2, natural Bet v 1 (Indoor …); test: blocking ELISA, captured IgE of donor 23939-MH, 1 ug/mL each antibody
[15] = target: T2, natural Bet v 1 (Indoor …); test: blocking ELISA, captured IgE of donor 23658-MD, 1 ug/mL each antibody
[16] = target: T2, natural Bet v 1 (Indoor …); test: blocking ELISA, captured IgE of donor 22627-MN, 1 ug/mL each antibody

| Binder | blockade of basophil activation (phospho-Erk MFI in basophils of PBMCs from birch allergic donors, 100 pM natural Bet v 1) (natural Bet v 1 [1]) | 100 nM natural Bet v 1 Bound (RU) (natural Bet v 1 [2]) | Kd (natural Bet v 1 [2]) | 100 nM natural Bet v 1 Bound (RU) (natural Bet v 1 [3]) | Kd (natural Bet v 1 [3]) | t½ (natural Bet v 1 [3]) | Percent Blocking [4] | Percent Blocking [5] | Percent Blocking [6] | Percent Blocking [7] | Percent Blocking [8] | Percent Blocking [9] | Percent Blocking [10] | Percent Blocking [11] | Percent Blocking [12] | Percent Blocking [13] | Percent Blocking [14] | Percent Blocking [15] | Percent Blocking [16] |
| --- | --- | --- | --- | --- | --- | --- | --- | --- | --- | --- | --- | --- | --- | --- | --- | --- | --- | --- | --- |
| H4H17082P2 (antibody, human IgG4 S228P, kappa, V domains shown, Human IgG4; also called REGN5715; MAB2) VH: QVQLVQSGAEVKKPGASVKVSCKASGYTFISYNIFWVRQATGQGLDWMGWMNPFRNNAGYAQKFQGRVTVTWDTSISTAYMELSSLSSEDTAIYYCAREHGSSWGFFDYWGQGTLVTVSS VL: not shown | 70% | 72 RU | 1.09 nM | 83 RU | 2.43 nM | 6.3 min | – | – | – | – | – | – | – | – | – | – | – | – | – |
| H4H17082P2 (antibody, human IgG4 S228P, kappa, V domains shown, human IgG4; also called REGN5715; MAB2) VH: QVQLVQSGAEVKKPGASVKVSCKASGYTFISYNIFWVRQATGQGLDWMGWMNPFRNNAGYAQKFQGRVTVTWDTSISTAYMELSSLSSEDTAIYYCAREHGSSWGFFDYWGQGTLVTVSS VL: not shown | – | – | – | – | – | – | 66% | 52% | 81% | 82.7% | 74% | 49% | 82.9% | 51% | 38% | 56.4% | 79% | – | – |
| H4H16987P (antibody, human IgG4 S228P, kappa, V domains shown, human IgG4; also called MAB4) VH: EVQLVESGGGLVQPGGSLRLSCAASGFTVSSNSMSWVRQAPGEGLEWVSVIFSGGITYYSDSVKGRFTISRHNSKNTLYLQMNSLRTEDTAVYYCARHSNWNFDAFDIWGQGTMVTVSS VL: DIQMTQSPSSLSASVGDRVTITCRASQSFDTYLNWYQQKPGKAPNLLIYATSSLQSGVPSRFSGSGSGTDFTLTISSLQPEDFGTYYCQQSYSIPYTFGQGTKLEIKR | – | – | – | – | – | – | 9% | -46% | 15% | 11.1% | 4% | 13% | 19.6% | 16% | -4% | 21.6% | 16% | 27% | 12% |
